T1: MdNAC4-GST (Malus domestica, UniProt B6DXL4 1-350)
T1 sequence: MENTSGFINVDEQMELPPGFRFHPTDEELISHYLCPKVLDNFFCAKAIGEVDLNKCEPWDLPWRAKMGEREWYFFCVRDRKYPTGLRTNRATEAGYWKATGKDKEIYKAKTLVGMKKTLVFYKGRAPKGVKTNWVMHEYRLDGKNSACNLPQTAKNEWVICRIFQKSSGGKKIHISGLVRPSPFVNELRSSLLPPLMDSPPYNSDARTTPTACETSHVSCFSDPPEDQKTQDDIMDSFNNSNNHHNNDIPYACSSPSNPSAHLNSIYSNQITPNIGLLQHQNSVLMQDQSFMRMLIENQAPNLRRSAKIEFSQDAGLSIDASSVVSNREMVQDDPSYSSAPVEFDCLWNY

B1: MdNYC1 promoter probe (ABRE) (dsDNA)
DNA 1: ATATAGGCACGTGAAGGGAGGACAGAGATG
DNA 2: CATCTCTGTCCTCCCTTCACGTGCCTATAT
B2: MdPAO promoter probe (ABRE) (dsDNA)
DNA 1: AGTTATCCATACGTGTAAAACCAAT
DNA 2: ATTGGTTTTACACGTATGGATAACT
B3: MdPAO Mut probe (dsDNA)
DNA 1: AGTTATCCATCCGTCTAAAACCAAT
DNA 2: ATTGGTTTTAGACGGATGGATAACT

Experiments:
MdNAC4-GST [1] = biological target: T1, MdNAC4-GST; experiment: EMSA; unlabeled probe competes; EMSA binding buffer (composition not given), 24 °C, 30 min in the dark; details: protein: recombinant; tags: GST (pGEX-4T-1 type primers GST-MdNAC4-F/R); chain copies: 2; label: biotin; blunt
MdNAC4-GST [2] = biological target: T1, MdNAC4-GST; experiment: EMSA; EMSA binding buffer (composition not given), 24 °C, 30 min in the dark; details: protein: recombinant; tags: GST (pGEX-4T-1 type primers GST-MdNAC4-F/R); chain copies: 2; blunt

| Binder | binding result (MdNAC4-GST [1]) | binding result (MdNAC4-GST [2]) |
| --- | --- | --- |
| B1 | binds |  |
| B2 | binds |  |
| B3 |  | no binding |

— PMC9280364, “MdNAC4 Interacts With MdAPRR2 to Regulate Nitrogen Deficiency-Induced Leaf Senescence in Apple (Malus domestica)”
